Molecular target: T1, TGR-1-expressing CHO cells (Homo sapiens, UniProt Q9GZQ4, A395T)
T1 construct: expressed in transfected cells; host or cells: CHO cells
Experiment: Site sensor assay of extracellular acidification rate in TGR-1-expressing CHO cells versus mock CHO cells
Assay type: cell-based
Conditions: exposed to the cells for 7 minutes and 2 seconds; step-wise decreased concentrations; compared with mock CHO cells; 3 cycles before exposure set as 100%
Procedure: In the site sensor assay, pig Neuromedin U-8 at the concentrations indicated in FIG. 1 was reacted to TGR-1-expressing CHO cells (●) and mock CHO cells (◯) for 7 minutes and 2 seconds. The maximum of acidification rate during the reaction was plotted.
[10] TGR-1-expressing cells changes extracellular pH (acidification rate) in response to Neuromedin U. By measuring such change with a site sensor device (Molecular Device), the activity of Neuromedin U can be measured. The details of screening method for the compound that alters the binding between Neuromedin U and TGR-1 by measuring the extracellular pH change with the site sensor device are as follows.
TGR-1-expressing cells are cultivated in a capsule of the site sensor over night. […] After the pH becomes stable, measured is the pH change of the medium caused by refluxing the medium containing Neuromedin U or Neuromedin U and a test compound on the cells. An influence of the compound that alter the binding of Neuromedin U and TGR-1 can be measured by comparing the change of extracellular pH in TGR-1-expressing cells with that by the single administration of Neuromedin U. The compound that inhibits the change of extracellular pH by administrating Neuromedin U can be selected as a candidate substance that is capable of altering the binding property between Neuromedin U and TGR-1. […]

T1 sequence (Q9GZQ4 whole entry A395T): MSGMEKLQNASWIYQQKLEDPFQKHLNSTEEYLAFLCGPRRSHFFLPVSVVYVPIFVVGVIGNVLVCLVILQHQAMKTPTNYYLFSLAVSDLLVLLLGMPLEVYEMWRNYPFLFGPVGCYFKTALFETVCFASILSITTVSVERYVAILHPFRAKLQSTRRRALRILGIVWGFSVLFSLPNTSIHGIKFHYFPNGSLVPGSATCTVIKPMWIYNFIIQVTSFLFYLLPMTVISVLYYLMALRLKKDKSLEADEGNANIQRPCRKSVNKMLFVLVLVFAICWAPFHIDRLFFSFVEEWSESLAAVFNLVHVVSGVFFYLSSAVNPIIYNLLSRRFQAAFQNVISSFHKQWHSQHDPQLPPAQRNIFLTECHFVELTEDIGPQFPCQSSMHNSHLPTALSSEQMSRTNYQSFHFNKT

With “Pig Neuromedin U-8: Pig Neuromedin U-8 peptide of 8 amino acid residues (BACHEM, H-5505, SEQ ID NO:5), ligand of TGR-1” the “TGR-1 receptor-specific cell-stimulating activity (peak acidification rate, rate of change in extracellular pH)” value was “reacted to Neuromedin U in a specific and does-dependent manner”.

— US7138249B2, “Screening method” (Takeda Pharmaceutical Company Limited, priority 2000, dated 2006)
